In patent publication US20160047001A1, “Sept4/ARTS AS A TUMOR SUPPRESSOR IN THE DIAGNOSIS, PROGNOSIS AND TREATMENT OF HEPATIC DISORDERS” (CARMEL-HAIFA UNIVERSITY ECONOMIC CORPORATION LTD., priority 2013, published 2016):
Entries after “also recorded” stand apart in the source; their conditions may differ.

B1: sh-panSept4: miR30-designed shRNA targeting all Sept4-isoforms, including ARTS (nucleic acid)
chain: TGCTGTTGACAGTGAGCGCAAGCACGCAGTGGATATAGAATAGTGAAGCCACAGATGTATTCTATATCCACTGCGTGCTTATGCCTACTGCCTCGGA
B2: sh-ARTS-1: miR30-designed shRNA specifically targeting ARTS, in pLMP retroviral vector (nucleic acid)
chain: TGCTGTTGACAGTGAGCGCAAGGGAACAGGCCGAGTAGCATAGTGAAGCCACAGATGTATGCTACTCGGCCTGTTCCCTTATGCCTACTGCCTCGGA
B3: sh-ARTS-3: miR30-designed shRNA specifically targeting ARTS, in pLMP retroviral vector (nucleic acid)
chain: TGCTGTTGACAGTGAGCGACGGGTGGTCACTGATTCCTGTTAGTGAAGCCACAGATGTAACAGGAATCAGTGACCACCCGCTGCCTACTGCCTCGGA
B4: sh-ARTS-2: miR30-designed shRNA specifically targeting ARTS, in pLMP retroviral vector (nucleic acid)
chain: TGCTGTTGACAGTGAGCGAAACAGGCCGAGTAGCACCACATAGTGAAGCCACAGATGTATGTGGTGCTACTCGGCCTGTTCTGCCTACTGCCTCGGA

Key:
ARTS mRNA = test: RT-PCR of ARTS mRNA after exposure to chromatin-modifying drugs; type: cell-based, human; settings: for ARTS mRNA level: HCC cell-lines, individual treatment, AZA 10 μM, TSA 1 μM; for ARTS levels: PH5CH non-malignant hepatocyte cell-line
Protocol: Quantitative reverse transcription polymerase chain reactions (qRT-PCR) incorporating SYBR Green (Applied Biosystems) were carried-out using a Realplex qPCR Mastercycler (Eppendorf; Hauppauge, N.Y.). For semi-quantitative PCR, total RNA was extracted from cell-lines using Trizol reagent (Invitrogen, Carlsbad, Calif.) and in turn, was used to synthesize cDNA using random primers, reagents, and protocol provided in the Superscript 1st strand synthesis kit (Invitrogen). Normalized amounts of cDNA served as template in standard PCR using AmpliTaq DNA polymerase (Applied Biosystems). Immunoblotting was performed as previously described in (7). Cell extracts were prepared from tumor and adjacent non-tumor control tissues that were excised from the liver of sacrificed mice, homogenized by Polytron PT 2100 (Brinkman) in Triton X-100 lysis buffer and clarified by centrifugation. Extracts were normalized for protein concentration by Bradford assay (BioRad) prior to immunoblotting procedures. Signal detection was performed with enhanced chemiluminescence kit (Amersham). The following primary antibodies were used: anti-A6 (gift from Dr. V. Factor NCI/NIH), anti-Flag and anti-β-actin (Sigma); anti-XIAP (Becton Dickinson); anti-cIAP-1 (R&D Systems); anti-β-catenin and anti-Survivin (Cell Signaling), anti-cytokeratin-8 (Fitzgerald Indust. Intl., Concord, Mass.). 5-Aza-2′deoxycytidine (AZA), Trichostatin A (TSA), and cycloheximide (CHX) were purchased from Sigma-Alrich. Tumor-necrosis factor-α, the anti-Fas antibody (Jo-2), and the in vitro methylated genomic Hela DNA were obtained from Peprotech, Pharminogen, and New England Biolabs, respectively. To examine the possibility of epigenetic regulation, chromatin-modifying drugs were tested for their ability to influence ARTS expression. Cells were exposed to DNA-methyltransferase and HDAC inhibitors 5′ aza-cytosine (AZA) and trichostatin A (TSA), respectively.

PHM-1 hepatoblasts = test: Growth of PHM-1 hepatoblasts after sub-cutaneous transplantation into host mice; type: in vivo; settings: PHM-1 cells carrying the hairpin, sub-cutaneous injection into host mice
Excerpt: FIG. 5D. Growth of PHM-1 hepatoblasts following their sub-cutaneous transplantation into host mice. Values are the mean±standard deviation of four independent experiments. P-values: *P=0.04, **P=0.03, and ***P=0.01.
Details on isolation, culture, retrovirus-mediated gene transfer, and sub-cutaneous transplantation of hepatoblasts can be found in (30). Cell viability was monitored by propidium iodide (PI) nuclear staining and flow cytometric analysis.

ARTS = test: Western blot of ARTS knockdown by hairpins in NIH3T3 fibroblasts; type: cell-based
Protocol: (§1) miR30-designed shRNAs were subcloned into the pLMP (MSCV-based) retroviral vector as previously described (30). Briefly, individual shRNAs were synthesized as 97 base-pair oligos (Sigma Genosys), PCR-amplified, ligated into pLMP following EcoRI/XhoI-digestion.
Immunoblotting was performed as previously described in (7). Cell extracts were prepared from tumor and adjacent non-tumor control tissues that were excised from the liver of sacrificed mice, homogenized by Polytron PT 2100 (Brinkman) in Triton X-100 lysis buffer and clarified by centrifugation. Extracts were normalized for protein concentration by Bradford assay (BioRad) prior to immunoblotting procedures. Signal detection was performed with enhanced chemiluminescence kit (Amersham). The following primary antibodies were used: anti-A6 (gift from Dr. V. Factor NCI/NIH), anti-Flag and anti-β-actin (Sigma); anti-XIAP (Becton Dickinson); anti-cIAP-1 (R&D Systems); anti-β-catenin and anti-Survivin (Cell Signaling), anti-cytokeratin-8 (Fitzgerald Indust. Intl., Concord, Mass.). 5-Aza-2′deoxycytidine (AZA), Trichostatin A (TSA), and cycloheximide (CHX) were purchased from Sigma-Alrich. Tumor-necrosis factor-α, the anti-Fas antibody (Jo-2), and the in vitro methylated genomic Hela DNA were obtained from Peprotech, Pharminogen, and New England Biolabs, respectively.

Sept4/H5-Flag = test: Western blot (anti-Flag) of Sept4/H5-Flag knockdown in NIH3T3 fibroblasts; type: cell-based; settings: NIH3T3 fibroblasts stably expressing Sept4/H5-Flag; retroviral shRNA; anti-Flag immunoblot
Protocol: FIG. 5I. A pan-Sept4- and Sept4/H5-specific short-hairpins promote efficient knowndown. […] NIH3T3 fibroblasts stably expressing Flag-epitope tagged Sept4/H5 (Sept4/H5-Flag) were transduced with retroviruses harboring the indicated shRNAs, a non-silencing control, or left un-infected Immunoblotting was performed with anti-Flag antibody to detect Sept4/H5-Flag expression (red arrow).
as §1
Immunoblotting was performed as previously described in (7). Cell extracts were prepared from tumor and adjacent non-tumor control tissues that were excised from the liver of sacrificed mice, homogenized by Polytron PT 2100 (Brinkman) in Triton X-100 lysis buffer and clarified by centrifugation. Extracts were normalized for protein concentration by Bradford assay (BioRad) prior to immunoblotting procedures. Signal detection was performed with enhanced chemiluminescence kit (Amersham). […]

Molecule	ARTS mRNA level (ARTS mRNA)	ARTS levels (ARTS mRNA)	ARTS levels (knockdown) (ARTS)	other results
CC(/C=C/C(=O)NO)=C\[C@@H](C)C(=O)c1ccc(N(C)C)cc1 [TSA, Trichostatin A]	upregulation of ARTS mRNA; also recorded: induced ARTS mRNA to levels comparable to those observed in normal hepatocytes	little appreciable effect	–	–
Nc1ncn([C@H]2C[C@H](O)[C@@H](CO)O2)c(=O)n1 [AZA, 5-Aza-2′deoxycytidine]	upregulation of ARTS mRNA; also recorded: induced ARTS mRNA to levels comparable to those observed in normal hepatocytes	little appreciable effect	–	–
B1	–	–	capable of reducing ARTS levels	tumor growth (PHM-1 hepatoblasts): promoted tumor growth; Sept4/H5 knockdown (Sept4/H5-Flag): highly effective Sept4/H45 knockdown
B2	–	–	capable of reducing ARTS levels	–
B3	–	–	capable of reducing ARTS levels	–
B4	–	–	capable of reducing ARTS levels	–
